Key:
[1] = molecular target: tubulin from porcine brain, polymerised into microtubules (porcine) (UniProt P02550); assay: single-molecule TIRF microscopy; single-molecule localisation at growing microtubule ends (tubulin 12 μM): 1 nM GFP-MCAK with 1 mM ATP, 10 nM EB1-GFP or 1 nM XMAP215-GFP, each alone; apparent constants
[2] = molecular target: the molecule itself; assay: SEC; Superose 6 Increase 5/150 GL; BRB80 with 50 mM KCl and 1 mM ATP
[3] = molecular target: tubulin from porcine brain, polymerised into microtubules (porcine) (UniProt P02550); assay: single-molecule TIRF microscopy; binding events on the lattice of dynamic microtubules (tubulin 16 μM); GFP-MCAK with 1 mM AMPPNP
[4] = molecular target: tubulin from porcine brain, polymerised into microtubules (porcine) (UniProt P02550); assay: single-molecule TIRF microscopy; binding events at the minus-ends of dynamic microtubules; GFP-MCAK, 1 mM ATP; BRB80 + 50 mM KCl, 35°C; apparent constants, per tubulin dimer
[5] = molecular target: tubulin from porcine brain, polymerised into microtubules (porcine) (UniProt P02550); assay: single-molecule TIRF microscopy; binding events at the growing plus-end of dynamic microtubules (tubulin 16 μM); GFP-MCAK with 1 mM ADP; apparent constants, per tubulin dimer
[6] = molecular target: tubulin from porcine brain, polymerised into microtubules (porcine) (UniProt P02550); assay: single-molecule TIRF microscopy; binding events at the growing plus-end of dynamic microtubules (tubulin 16 μM); GFP-MCAK with 1 mM AMPPNP; apparent constants, per tubulin dimer
[7] = molecular target: tubulin from porcine brain, polymerised into microtubules (porcine) (UniProt P02550); assay: single-molecule TIRF microscopy; binding events at the growing plus-end of dynamic microtubules (tubulin 16 μM); GFP-MCAK without nucleotide (APO); apparent constants, per tubulin dimer
[8] = molecular target: tubulin from porcine brain, polymerised into microtubules (porcine) (UniProt P02550); assay: single-molecule TIRF microscopy; single-molecule localisation at growing microtubule ends (tubulin 12 μM): 1 nM GFP-MCAK with 1 mM ATP, 10 nM EB1-GFP or 1 nM XMAP215-GFP, each alone; apparent constants; remark: listed apart in the source
[9] = molecular target: tubulin from porcine brain, polymerised into microtubules (porcine) (UniProt P02550); assay: single-molecule TIRF microscopy; binding events on the lattice of dynamic microtubules (tubulin 16 μM) grown from immobilised GMPCPP seeds; 10 nM GFP-MCAK (10 nM K524A, 30 nM V298S); 1 mM ATP; BRB80 + 50 mM KCl, 35°C; apparent constants, per tubulin dimer
[10] = molecular target: tubulin from porcine brain, polymerised into microtubules (porcine) (UniProt P02550); assay: single-molecule TIRF microscopy; binding events at the growing plus-end (end region 162 nm FWHM) of dynamic microtubules (tubulin 16 μM) grown from immobilised GMPCPP seeds; 10 nM GFP-MCAK (10 nM K524A, 30 nM V298S); 1 mM ATP; BRB80 + 50 mM KCl, 2 mM GTP, 35°C; apparent constants, per tubulin dimer

EB1-GFP (from UniProt Q15691 1-268) (natural protein)
Kd [1]: 722 µM

B1: GFP-MCAK (mitotic centromere-associated kinesin, wild type) (enzyme, UniProt Q99661 1-725, looked up)
chain: MAMDSSLQARLFPGLAIKIQRSNGLIHSANVRTVNLEKSCVSVEWAEGGATKGKEIDFDDVAAINPELLQLLPLHPKDNLPLQENVTIQKQKRRSVNSKIPAPKESLRSRSTRMSTVSELRITAQENDMEVELPAAANSRKQFSVPPAPTRPSCPAVAEIPLRMVSEEMEEQVHSIRGSSSANPVNSVRRKSCLVKEVEKMKNKREEKKAQNSEMRMKRAQEYDSSFPNWEFARMIKEFRATLECHPLTMTDPIEEHRICVCVRKRPLNKQELAKKEIDVISIPSKCLLLVHEPKLKVDLTKYLENQAFCFDFAFDETASNEVVYRFTARPLVQTIFEGGKATCFAYGQTGSGKTHTMGGDLSGKAQNASKGIYAMASRDVFLLKNQPCYRKLGLEVYVTFFEIYNGKLFDLLNKKAKLRVLEDGKQQVQVVGLQEHLVNSADDVIKMIDMGSACRTSGQTFANSNSSRSHACFQIILRAKGRMHGKFSLVDLAGNERGADTSSADRQTRMEGAEINKSLLALKECIRALGQNKAHTPFRESKLTQVLRDSFIGENSRTCMIATISPGISSCEYTLNTLRYADRVKELSPHSGPSGEQLIQMETEEMEACSNGALIPGNLSKEEEELSSQMSSFNEAMTQIRELEEKAMEELKEIIQQGPDWLELSEMTEQPDYDLETFVNKAESALAQQAKHFSALRDVIKALRLAMQLEEQASRQISSKKRPQ
notes: MCAK (mitotic centromere-associated kinesin, kinesin-13); GFP-MCAK monomer printed as 110 kDa; Dimer by size-exclusion chromatography; Used with 1 mM ATP, AMPPNP, ADP or without nucleotide (APO); Purification adapted from Helenius et al., 2006; The printed residue numbers (K524, V298, T537) and the 110 kDa mass fit whole human MCAK (surmised); also called MCAK‧ATP; MCAK‧AMPPNP; source: Sf9, …
stoichiometry N [2]: 2 | dwell time [3]: 1.46 s | Kd [4]: 40 µM | RE/L (kon at the end over kon on the lattice) [4]: 13 | Kd [5]: 163 µM | RE/L (kon at the plus-end over kon on the lattice) [5]: 2 | dwell time [5]: 0.46 s | Kd [6]: 61 µM | RE/L (kon at the plus-end over kon on the lattice) [6]: 11 | dwell time [6]: 3.32 s | Kd [7]: 1.8 µM | RE/L (kon at the plus-end over kon on the lattice) [7]: 2 | dwell time [7]: 1.89 s | dwell time of distally distributed molecules at the growing end [8]: 0.8 s | dwell time of proximally distributed molecules at the growing end [8]: 0.7 s | Kd [9]: 1060 µM | dwell time [9]: 0.62 s | kon [9]: 2800 M⁻¹ s⁻¹ | Kd [10]: 69 µM | dwell time [10]: 0.75 s | effective dissociation constant (the microtubule end taken as one multivalent receptor, end length 160 nm) [10]: 260 nM | kon [10]: 22600 M⁻¹ s⁻¹
